# Experimental data as given in patent publication US20190024087.
# Biological target: T1, GDF11 (mature human) (Homo sapiens) (UniProt O95390)
# T1 sequence: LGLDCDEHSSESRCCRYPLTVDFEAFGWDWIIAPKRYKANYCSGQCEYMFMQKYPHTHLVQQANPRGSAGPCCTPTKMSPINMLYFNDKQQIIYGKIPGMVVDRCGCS
# Test: filter
# Settings: NapdU at all P (n) positions, 0.1 uM Z-block
Sequence,Kd,other results
CCCTGCGCCTTCGGACTTGCTTTAAGTTTAGCCGCTTGCTCACAACACAA [12060-300_3],0.99 nM,–
CCCTGGTTGACAAGGTACTGGACTTGATTTACGTTTAGCCTCAAGCACAA [12058-386_3],6.7 nM,–
CTGTGCTAAGACTGCGGACTTGATTTAGGTTTAGCCGCAAGAAGTCACAA [16139-37_3],1.21 nM,–
CCCTGCGCCTTCGGACTTGATTTAAGTTTAGCCGCTTGCTCACATCACAA [12060-28_38],1.1 nM,–
CTGTGCGTACTGACTTGATTTACGTTTTAGCGATGCATGCTTGAGCCACAA [16139-122_3],2.23 nM,–
CTGTGAGTGTACCTCGCGCTTGATTTACGTTTAGGCGAGGCAGGCCACAA [16139-30_3],0.92 nM,–
CTGTGAACTTGATTTAAGTTTAGGCACATACACCACTCCGGACGA [16139-198_3],0.62 nM,–
CTGTGGTTAACGACGACTTGATTTACGTTTAGCGGCACCTTACACCACAA [16139-19_3],1.7 nM,–
CTGTGGACTGAGTTGGATGGGACTTGATTTAAGTTTAGCCCGCAACACAA [16139-3_3],1.58 nM,–
CTGTGACCTTCACCCGTGACTTGGTTTACGTTTAGCGGGTAGGTCACAA [16139-178_3],1.08 nM,–
CCCTGCGCCTTCGGACTTGCTTTAGGTTTAGCCGCTTGCTCACATCACAA [12060-28_40],1.4 nM,–
CCCTGCGCCTTCGGACTTGCTTTAAGTTTAGCCGCTTGCTTACATCACAA [12060-116_3],1.14 nM,–
CTGTGACTAATGTGACCGGAGACTTGCTTTACGTTTAGCGACCTGCACAA [16139-12_3],1.7 nM,–
CCCTGTGAGACTTGATTTACGTTTAGCTGCTAACATGGGGAACCACACAA [12060-16_3],–,Kd (Table 5 gives 6.52 nM): 6.5 nM
CCCTGCGCCTTCGGACTTGGTTTAAGTTTAGCCGCTTGCTCACATCACAA [12060-28_39],1.2 nM,–
CCCTGCGCCTTCGGACTTGCTTTACGTTTAGCCGCTTGCTCACATCACAA [12060-238_3],3.4 nM,–
CCCTGCGCCTTCGGACTTGCTTTAAGTTTAGCCGCTCGCTCACATCACAA [12060-204_3],0.94 nM,–
CCCTGCGCCTTCGGACTTGCTTTAAGTTTAGCCGCTTGTTCACATCACAA [12060-4_3],0.9 nM,–
CCCTGCGCCTTCGGACTTGCTTTAAGTTTAGCCGCTTGCTCACATCACAA [12060-28_3],–,"Kd (Table 5 gives 4.17 nM, p194 1.74 nM with 1 uM Z-block): 1.7 nM"
CCCTGCGCCTTCGGACTTGCTTTAAGTTTAGCCGCTTGCTCACGTCACAA [12060-130_3],0.61 nM,–
CCCTGTGCCTTCGGACTTGCTTTAAGTTTAGCCGCTTGCTCACATCACAA [12060-32_3],1.45 nM,–
